{
  "source": "paper PMC7195466",
  "about": "“A common allosteric mechanism regulates homeostatic inactivation of auxin and gibberellin” (Nature Communications, 2020)",
  "proteins": {"B1": {"name": "Oryza sativa gibberellin 2-oxidase 3 (OsGA2ox3), wild type (enzyme, rice (Oryza sativa), UniProt Q8S0S6 1-327, looked up)", "chain": "MVVLAGPPAVDHIPLLRSPDPGDVFSGVPVVDLGSPGAARAVVDACERYGFFKVVNHGVATDTMDKAESEAVRFFSQTQPDKDRSGPAYPFGYGSKRIGFNGDMGWLEYLLLALDDASLADACTVPSCAVFRAALNEYISGVRKVAVRVMEAMSEGLGIAQADALSALVTAEGSDQVFRVNHYPPCRALQGLGCSVTGFGEHTDPQLVSVLRSNGTSGLQIALRDGQWVSVPSDRDSFFVNVGDSLQVLTNGRFKSVKHRVVANSLKSRVSFIYFGGPPLAQRIAPLPQLLGEGEQSLYKEFTWDEYKKAAYKSRLGDNRLAQFEKK"}},
  "molecular_target": "the molecule itself",
  "assay": "cell-based or functional assay",
  "data": [
    {"protein": "B1", "values": [
      {"measurement": "Vmax of the tetramer and dimer against the monomers (forms separated by gel filtration)", "result": "> 3", "unit": "fold"}
    ]}
  ]
}
